Source: article PMC5771465 (Nature structural & molecular biology, 2016)

Key:
[1] = target: C5-OmCI complex (human | not stated (tick)) (UniProt Q5YD59); assay: SEC-MALS
complement C5 = complement C5 (human, UniProt P01031); assay: crystal structure

Molecule | stoichiometry N [1] | binding result (complement C5)
RaCI3 (from UniProt A0A146B485 25-102) (natural protein) | 1 | 
His-tagged OmCI carrying two glycosylation mutations (N78Q/N102Q) (natural protein) DSESDCTGSEPVDAFQAFSEGKEAYVLVRSTDPKARDCLKGEPAGEKQDNTLPVMMTFKQGTDWASTDWTFTLDGAKVTATLGQLTQNREVVYDSQSHHCHVDKVEKEVPDYEMWMLDAGGLEVEVECCRQKLEELASGRNQMYPHLKDC |  | binds
